Experimental data from FireProtDB (doi:10.1021/bi00128a004).
Several values for one entry are separate records, joined by “and”; a condition that tells them apart may be missing. Equal entries are not always repeated.

B1: Tissue-type plasminogen activator, P00750 (parent)
chain: MDAMKRGLCCVLLLCGAVFVSPSQEIHARFRRGARSYQVICRDEKTQMIYQQHQSWLRPVLRSNRVEYCWCNSGRAQCHSVPVKSCSEPRCFNGGTCQQALYFSDFVCQCPEGFAGKCCEIDTRATCYEDQGISYRGTWSTAESGAECTNWNSSALAQKPYSGRRPDAIRLGLGNHNYCRNPDRDSKPWCYVFKAGKYSSEFCSTPACSEGNSDCYFGNGSAYRGTHSLTESGASCLPWNSMILIGKVYTAQNPSAQALGLGKHNYCRNPDGDAKPWCHVLKNRRLTWEYCDVPSCSTCGLRQYSQPQFRIKGGLFADIASHPWQAAIFAKHRRSPGERFLCGGILISSCWILSAAHCFQERFPPHHLTVILGRTYRVVPGEEEQKFEVEKYIVHKEFDDDTYDNDIALLQLKSDSSRCAQESSVVRTVCLPPADLQLPDWTECELSGYGKHEALSPFYSERLKEAHVRLYPSSRCTSQHLLNRTVTDNMLCAGDTRSGGPQANLHDACQGDSGGPLVCLNDGRMTLVGIISWGLGCGQKDVPGVYTKVTNYLDWIRDNMRP

Variants of: B1
Conditions: Homo sapiens; pH 8; Thermal; DSC; Tris - Oac/100mM NaOAc 50 mM; structure 1PML; whole UniProt chain shown

Question: What does the source list for W288L?
Answer: Tm: 71.7 °C and 73.9 °C; change of melting temperature, mutant - wild type (higher = more stable): -3.7 °C

Question: What does the source list for W288S?
Answer: Tm: 73.7 °C and 76.5 °C; change of melting temperature, mutant - wild type (higher = more stable): -3.5 °C

Question: Which Tm does the source give for W288Y here?
Answer: 81.6 °C

Question: With W288F as the variant, how does the “change of melting temperature, mutant - wild type (higher = more stable)” value read?
Answer: -1.7 °C
